For three molecules, Kd and Ki results are on record in article PMC9661471 (Journal of Medicinal Chemistry, 2022).

Experiment [1] addresses human Nectin-4 ECD (human) (UniProt Q96NY8). Kind of experiment: SPR.
Experiment [2] concerns the target T1, human Nectin-4 ECD (human, UniProt Q96NY8 32-349).
T1 sequence (looked up): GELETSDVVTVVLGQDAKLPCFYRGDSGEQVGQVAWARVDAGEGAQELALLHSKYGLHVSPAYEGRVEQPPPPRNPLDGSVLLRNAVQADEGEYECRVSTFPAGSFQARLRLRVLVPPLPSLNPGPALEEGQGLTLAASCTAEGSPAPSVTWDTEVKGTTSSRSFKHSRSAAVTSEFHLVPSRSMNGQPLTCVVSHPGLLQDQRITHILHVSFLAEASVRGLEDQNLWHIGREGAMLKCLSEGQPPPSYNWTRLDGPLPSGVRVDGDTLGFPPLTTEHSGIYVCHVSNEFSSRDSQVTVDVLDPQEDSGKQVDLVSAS
Description: fluorescence polarisation. A general note: Fluorescence polarisation rises when a labelled molecule tumbles more slowly, as on binding a larger partner.

*1 amine or outer side, *2 acyl side, *3 side chain or, on linkers, in order; H or OH if unused. Bridges are numbered along the chain shown (N, C = ends). TATA = O=C(CC[*:1])N1CN(C(=O)CC[*:2])CN(C(=O)CC[*:3])C1

As for “Bicycle Toxin Conjugate BT8009 (peptide)”, the Kd in experiment [1] worked out at 2.5 nM. Regarding Ac-CPFGCMKNWSWPIWCTNK-NH2 (linker 1-5-15 via TATA) [Bicycle 8], the Ki in experiment [2] amounted to 13.5 nM.

B1: Bicycle 10 (peptide)
peptide: Ac-CPFGCMKNWSWPIWC-NH2
modifications: linker 1-5-15 via TATA
SMILES: CC[C@H](C)[C@@H]1NC(=O)[C@@H]2CCCN2C(=O)[C@H](Cc2c[nH]c3ccccc23)NC(=O)[C@H](CO)NC(=O)[C@H](Cc2c[nH]c3ccccc23)NC(=O)[C@H](CC(N)=O)NC(=O)[C@H](CCCCN)NC(=O)[C@H](CCSC)NC(=O)[C@@H]2CSCCC(=O)N3CN(CN(C3)C(=O)CCSC[C@H](NC(C)=O)C(=O)N3CCC[C@H]3C(=O)N[C@@H](Cc3ccccc3)C(=O)NCC(=O)N2)C(=O)CCSC[C@@H](C(N)=O)NC(=O)[C@H](Cc2c[nH]c3ccccc23)NC1=O
For B1, the affinity in experiment [2] corresponds to a Ki of 17.6 nM.

Broadly, the Kd is the constant that tells how readily two partners part at equilibrium. A low value points to a tighter complex. For orientation: Ki means a dissociation constant, usually derived from enzyme kinetics or from competition with a known ligand. Higher therefore signals weaker binding.
